Entries after “also recorded” stand apart in the source; their conditions may differ. Like-named read-outs stand apart in the source and are kept apart here. Each block holds one molecule with its values, some of them ahead of it. Where a SMILES comes first, the peptide text is derived from it. Where no end group is shown, it is not given here.
What was measured:
cyclin B-Cdc2 = molecular target: T1, cyclin B-Cdc2 (Homo sapiens, UniProt P06493); test: Cyclin B-Cdc2 histone H1 kinase assay; type: biochemical; conditions: concentrations up to 20 μM
T1 construct: made in house; host or cells: Sf9 insect cells, baculovirus co-infection; unpurified lysate
Method: The conditions were identical to those described in the Experimental Procedures for cyclin D1-Cdk4 except that histone H1 (0.5 μg/assay) was used as the substrate for cyclin B-Cdc2.

cyclin D1-Cdk4 [1] = molecular target: T2, cyclin D1-Cdk4 (Homo sapiens, UniProt P11802+P24385); test: Cyclin D1-Cdk4 GST-Rb phosphorylation assay (Sf9 insect cell lysate); type: biochemical
T2 construct: made in house; host or cells: Sf9 insect cells, baculovirus co-infection; unpurified lysate
Method: (§1) “x” indicates no addition of peptide.
(§2) Cyclins and CDKs—Cdk4 and cyclin D1, Cdk2 and cyclin E and Cdc2 and cyclin B were co-expressed in Sf9 insect cells infected with the appropriate baculovirus constructs. The cells were harvested two days after infection by low speed centrifugation and the pellet was lysed in an equal volume of 10 mM Hepes, pH 7.4 containing: 10 mM NaCl, 1 mM EDTA, and 0.1 mM phenylmethane sulphonyl fluoride, 2 mM DTT and centrifuged at 14000×g for 15 min. The supernatant was removed, aliquoted and immediately frozen in liquid nitrogen. Thawed lysate was used only once and was never refrozen. Labelled Cdk4 and cyclin D1 were produced by translation in the presence of [^35S] methionine using a rabbit reticulocyte lysate in vitro translation kit (Promega).
(§3) Phosphorylation of GST-Rb—Cdk4 activity was measured using the cyclin D1-Cdk4 containing insect cell lysate described above. Extract (1 μl) was added to a final reaction volume of 10 μl, containing: 50 mM Hepes, pH 7.4, 10 mM MgCl2, 2.5 mM EGTA, 1 mM DTT, 10 mM β-glycerophosphate, 1 mM NaF, 10 mM PKI, 50 μM ATP containing [^32P] ATP (1000 cpm/pMol) and 0.5 μg GST-Rb. […] The samples were analysed by SDS-PAGE on 12% gels followed by auto-radiography and quantification using a Bio-Imager.

cyclin D1-Cdk4 [2] = molecular target: T2, cyclin D1-Cdk4; test: Peptide phosphorylation by cyclin D1-Cdk4; type: biochemical; conditions: conditions where 2.4 nMol 32P incorporated per nMol GST-Rb
Method: The biotinylated peptides (1 μg) were incubated for 30 min at 30° C. in a final volume of 20 μl containing: 50 mM Hepes, pH 7.4, 10 mM MgCl2, 2.5 mM EGTA, 1 mM DTT, 10 mM β-glycerophosphate, 1 mM NaF, 10 mM PKI, 50 μM ATP containing [^32P]ATP (6000 cpm/pMol) and either 1 μl of cyclin D1-Cdk4 insect cell lysate, 1 μl of uninfected insect cell lysate or 0.02 mU of protein kinase C plus 0.5 mM CaCl2, 100 mg/ml phosphatidyl serine and 20 mg/ml diacylglycerol. The reactions were stopped by heating at 60° C. for 5 min and streptavidin agarose beads were added (10 μl packed cell volume washed with 3×PBS) and incubated with shaking at 4° C. for 30 min. The beads were washed extensively with PBS containing 3% (v/v) Tween-20 and the incorporation of radioactivity into the peptides was determined by Cerenkov counting.

cyclin D1-Cdk4 [3] = molecular target: T3, cyclin D1-Cdk4 (Homo sapiens, UniProt P11802); test: Cyclin D1-Cdk4 GST-Rb phosphorylation assay (Sf9 insect cell lysate); type: biochemical; conditions: GST-Rb substrate; read-out: I0.5 for inhibition of Cdk4 activity
T3 construct: made in house; host or cells: Sf9 insect cells, baculovirus co-infection; unpurified lysate
Method: as §1, §2, §3

cyclin D1-Cdk4 [4] = molecular target: T2, cyclin D1-Cdk4; test: Relief of p21WAF1 inhibition in cyclin D1-Cdk4 GST-Rb phosphorylation assay; type: biochemical; conditions: peptide 1, 5, 17 & 34 μM, fixed concentration of p21WAF1
HaCaT cells = test: Cell cycle measurements by BrdU/FACS in HaCaT cells; type: cell-based, human; conditions: for G1-, S-phase distribution / G1 arrest: proliferating HaCaT cells, 24 hours, Peptide-I and Peptide-III 25 μM, Peptide-II 50 μM
Method: The peptides were added to proliferating HaCaT cells, grown in DMEM plus 10% FCS. The cells were incubated for 24 hours pulse labelled during with 15 μM BrdU, fixed and then analysed by FACS.
Carrier linked peptides were designed for delivery into proliferating HaCaT cells (see FIG. 9). Cells were seeded on 30mm culture plates and grown to 50% confluency in Dulbecco's modified Eagle's medium (DMEM) supplemented with 10% (v/v) foetal calf serum (FCS). Peptides were added to the medium and the cells were incubated for 24 hours. During the last 30 minutes of the incubation the cells were pulse labelled in the presence of 15 μM BrdU. The cells were trypsinised, fixed in absolute alcohol and prepared for FACS analysis using a single laser flow cytometer (Becton-Dickinson, FACScan) as previously described (Renzing et al, 1996).

[5] = system: pRb phosphorylation in HaCaT cells; test: pRb phosphorylation in HaCaT cells (Western blot); type: cell-based, human; conditions: serum-starved HaCaT cells released with 10% FCS, 24 hour time course; Peptide-I 25 μM, Peptide-II 50 μM
Source text: Samples were taken at the times shown and analysed by SDS-PAGE/Western blot stained for pRb. pRb represents hypophosphorylated Rb protein and pRb* refers to hyperphosphorylated Rb protein. It should be pointed out that equal amounts of total protein were loaded per lane and that the antibody appears to preferentially recognise phosphorylated forms of the Rb protein. Peptide I corresponds with SEQ ID NO:24; peptide II corresponds with SEQ ID NO:25; and peptide III corresponds with SEQ ID NO:26.
HaCaT cells were seeded on 30 mm culture plates at 25% confluency in DMEM with 10% FCS. The FCS was withdrawn after 24 hours and the cells were starved for 72 hours. At the end of this period the medium was supplemented with 10% FCS and carrier linked peptides. Samples were taken over a 24 hour time course and the cells were lysed in RIPA buffer (50 mM Tris-HCl, pH 8.0, containing 150 mM NaCl, 1.0% (v/v) NP-40, 0.5% (w/v) DOC, 0.1% (w/v) SDS, 1 mM PMSF, 0.1 mg/ml aprotinin and 0.5 mg/ml leupeptin) for 30 minutes at 4° C. The phosphorylation statues of pRb was determined by Western blot analysis, as previously described (Fahraeus et al, 1996) except that the blot was probed with a pRb polyclonal antibody (C-15, Santa Cruz).

[6] = molecular target: cyclin D1-Cdk4 complex co-expressed in Sf9 insect cells (lysate) (UniProt P11802); test: cell-based or functional assay
Soas2 cells = test: Cell cycle arrest in Rb negative cells; type: cell-based
[7] = molecular target: cyclin D1-Cdk4 complex co-expressed in Sf9 insect cells (lysate) (UniProt P11802 1-303; P24385 1-295); test: cell-based or functional assay
[8] = molecular target: T4, Cdk4 labelled with [35S]methionine, translated in rabbit reticulocyte lysate (human, UniProt P11802 1-303, [35S]methionine label); test: peptide precipitation of 35S-labelled protein from reticulocyte lysate, SDS-PAGE and autoradiography
T4 construct: also called 35S-labelled Cdk4
Method: (§4) After extensive washing bound proteins were analysed using SDS-PAGE followed by autoradiography. The bands were quantified using a Bio-Imager and Whole Band Analysis Software (Millipore).
(§5) Peptide (1.5 μg) was diluted in 100 μl of PBS and incubated with 10 μl of packed streptavidin-agarose beads (Sigma) for 1 h at room temperature. Unbound peptide was removed by extensive washing with PBS and the beads, plus bound peptide, were incubated for 1 h at 4° C. with reticulocyte lysate containing either Cdk4 or cyclin D1 labelled with [^35S] methionine. […] The bound protein was analysed by SDS-PAGE followed by auto-radiography and quantification of the ^35S-labelled protein using a Bio-Imager and Whole Band Analysis Software (Millipore).

[9] = molecular target: T5, cyclin D1 labelled with [35S]methionine, translated in rabbit reticulocyte lysate (human, UniProt P24385 1-295, [35S]methionine label); test: as above
T5 construct: also called 35S-labelled cyclin D1
T5 sequence (P24385 whole entry): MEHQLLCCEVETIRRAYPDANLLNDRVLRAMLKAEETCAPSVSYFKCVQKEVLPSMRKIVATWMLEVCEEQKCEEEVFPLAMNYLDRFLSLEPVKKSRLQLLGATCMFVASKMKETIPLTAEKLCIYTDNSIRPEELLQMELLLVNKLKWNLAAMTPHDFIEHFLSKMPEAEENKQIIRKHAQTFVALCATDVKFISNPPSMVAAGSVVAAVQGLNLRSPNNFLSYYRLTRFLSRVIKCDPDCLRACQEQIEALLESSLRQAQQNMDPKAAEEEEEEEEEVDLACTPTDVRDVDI
Method: as §4, §5

Chain of cyclin D1-Cdk4 complex co-expressed in Sf9 insect cells (lysate) (UniProt P11802 1-303; P24385 1-295) (P11802 whole entry, chain 1 of 2): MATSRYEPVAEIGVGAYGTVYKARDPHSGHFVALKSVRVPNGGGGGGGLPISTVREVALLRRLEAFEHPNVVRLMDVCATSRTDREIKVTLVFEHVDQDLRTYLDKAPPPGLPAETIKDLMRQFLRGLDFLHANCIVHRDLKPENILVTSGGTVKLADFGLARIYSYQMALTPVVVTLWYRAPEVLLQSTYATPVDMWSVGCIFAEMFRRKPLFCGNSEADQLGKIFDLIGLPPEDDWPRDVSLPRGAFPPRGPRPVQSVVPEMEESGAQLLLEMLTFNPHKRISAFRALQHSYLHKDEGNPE
Chain of cyclin D1-Cdk4 complex co-expressed in Sf9 insect cells (lysate) (UniProt P11802 1-303; P24385 1-295) (P24385 whole entry, chain 2 of 2): as the sequence (P24385 whole entry) above
T2 sequence (P11802 whole entry): as the sequence (P11802 whole entry, chain 1 of 2) above
T2 sequence (P24385 whole entry): as the sequence (P24385 whole entry) above
T1 sequence (P06493 whole entry): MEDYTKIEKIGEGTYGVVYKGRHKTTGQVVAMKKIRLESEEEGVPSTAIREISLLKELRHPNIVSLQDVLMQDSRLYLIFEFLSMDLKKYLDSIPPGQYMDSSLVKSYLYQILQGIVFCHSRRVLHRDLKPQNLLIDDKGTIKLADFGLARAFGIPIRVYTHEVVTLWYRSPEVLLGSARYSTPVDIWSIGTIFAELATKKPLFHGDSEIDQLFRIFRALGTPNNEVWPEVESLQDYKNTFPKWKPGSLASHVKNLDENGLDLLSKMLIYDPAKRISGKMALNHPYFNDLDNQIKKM
T1 sequence (P14635 whole entry partner): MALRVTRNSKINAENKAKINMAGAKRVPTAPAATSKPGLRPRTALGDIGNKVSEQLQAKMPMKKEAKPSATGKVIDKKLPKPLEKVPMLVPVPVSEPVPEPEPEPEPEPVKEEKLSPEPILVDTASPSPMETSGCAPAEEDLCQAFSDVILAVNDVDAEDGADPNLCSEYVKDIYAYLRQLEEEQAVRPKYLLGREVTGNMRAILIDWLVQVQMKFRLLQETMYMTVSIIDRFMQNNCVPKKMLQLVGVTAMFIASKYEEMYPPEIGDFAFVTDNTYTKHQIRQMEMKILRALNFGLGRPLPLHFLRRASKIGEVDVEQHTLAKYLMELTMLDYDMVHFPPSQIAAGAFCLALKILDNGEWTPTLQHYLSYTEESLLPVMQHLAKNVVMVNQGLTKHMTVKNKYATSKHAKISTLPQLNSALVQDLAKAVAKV
Chain of cyclin D1-Cdk4 complex co-expressed in Sf9 insect cells (lysate) (UniProt P11802) (P11802 whole entry, chain 1 of 2): as the sequence (P11802 whole entry, chain 1 of 2) above
Chain of cyclin D1-Cdk4 complex co-expressed in Sf9 insect cells (lysate) (UniProt P11802) (P24385 whole entry, chain 2 of 2, further chain): as the sequence (P24385 whole entry) above
T3 sequence (P11802 whole entry): as the sequence (P11802 whole entry, chain 1 of 2) above
T3 sequence (P24385 whole entry, further chain): as the sequence (P24385 whole entry) above
T4 sequence (P11802 whole entry): as the sequence (P11802 whole entry, chain 1 of 2) above

Molecule: peptide 11: extreme C-terminal peptide of p21WAF1, SEQ ID NO:11 (TSMTDFYHSKRRLIFSKRKP)
cyclin D1-Cdk4 inhibitory activity (cyclin D1-Cdk4 [1]): potent inhibitor of Cdk4 activity
inhibition of cyclin D1-Cdk4 activity (cyclin D1-Cdk4 [1]; peptide at 17 μM): completely inhibited enzyme activity

Molecule: R-A mutant: peptide 10 with R-A at residue 15, equivalent to residue 155 of the full length protein (KRRQTSMTDFYHSKARLIFSSGSG)
block of inhibitory activity of full length p21WAF1 (cyclin D1-Cdk4 [4]): able to block the inhibitory activity of full length p21^WAF1

Molecule: Peptide-III: carrier linked control peptide 10 lacking the last 4 amino acids (LIFS), SEQ ID NO:26 (RQTSMTDFYHSKRRRQIKIWFQNRRMKWKK)
G1-, S-phase distribution / G1 arrest (HaCaT cells): no detectable effect on the ability of HaCaT cells to enter S-phase

Molecule: p16INK4 derived peptide (Fahraeus et al., 1996)
I0.5 for inhibition of cyclin D1-Cdk4 activity [6]: 16.3 µM

Molecule: Peptide-I: peptide 10 with M to A at position 7 synthesised onto Antennapedia carrier peptide, SEQ ID NO:24 (KRRQTSATDFYHSKRRLIFSRQIKIWFQNRRMKWKK)
phosphorylation status of pRb [5]: pRb remained hypophosphorylated
G1-, S-phase distribution / G1 arrest (HaCaT cells): number of cells entering S-phase in the presence of Peptide-I was dramatically reduced and the G1 population showed a concomitant increase
cell cycle arrest / G1 population in pRb negative cells (Soas2 cells): increase in the population of cells in G1 phase

B1: peptide 11 (extreme C-terminal peptide of p21^WAF1) (peptide)
peptide: H-TSMTDFYHSKRRLIFSKRKPSGSG
modifications: not fully specified (C-terminus); also: biotin on C-terminal SGSG spacer, order not given here
I0.5 for inhibition of Cdk4 activity (GST-Rb phosphorylation) [7]: 0.1 µM

B2: peptide 2 (residues 16-35 of p21^WAF1) (peptide)
peptide: H-KACRRLFGPVDSEQLSRDCDSGSG
modifications: not fully specified (C-terminus); cysteine pairing not given here; also: biotin on C-terminal SGSG spacer, order not given here
notes: Synthetic biotinylated peptide, captured on streptavidin-agarose in the precipitation assay; The order of biotin and SGSG at the C-terminus is not spelled out
I0.5 for inhibition of Cdk4 activity (GST-Rb phosphorylation) [7]: 2 µM
binding result [8]: no binding

B3: untagged eight amino acid peptide KRRLIFSK (peptide)
peptide: KRRLIFSK
fold I0.5 against the full length peptide 10 [7]: ~1000 fold

B4: peptide 10 (residues 141-160 of p21^WAF1) (peptide)
peptide: KRRQTSMTDFYHSKRRLIFSSGSG
modifications: not fully specified; Biotin-SGSG spacer at the C-terminus; free N-terminus
I0.5 for inhibition of Cdk4 activity (GST-Rb phosphorylation) [7]: 0.1 µM

B5: peptide 10 mutant with R-A at residue 15 of peptide 10 (residue 155 of the full length protein) (peptide)
peptide: H-KRRQTSMTDFYHSKARLIFSSGSG
modifications: not fully specified (C-terminus); also: biotin on C-terminal SGSG spacer, order not given here
loss of inhibitory activity against cyclin D1-Cdk4 relative to peptide 10 [7]: > 60%

B7: Peptide-II (truncated peptide 10 linked to carrier peptide) (peptide)
peptide: KRRLIFSKRQIKIWFQNRRMKWKK
fold decrease in fold I0.5 in vitro against the free truncated peptide 10 [7]: ~50 fold

Now from value to molecule, other results behind:

inhibition at 17 µM (cyclin D1-Cdk4 [1]; peptide at 17 μM, read-out: inhibition of kinase activity): ~80%
Molecule: CC(C)C[C@H](NC(=O)[C@H](CCCNC(=N)N)NC(=O)[C@H](CCCNC(=N)N)NC(=O)[C@H](CS)NC(=O)[C@H](C)NC(=O)[C@@H](N)CCCCN)C(=O)N[C@@H](Cc1ccccc1)C(=O)NCC(=O)N1CCC[C@H]1C(=O)N[C@H](C(=O)N[C@@H](CC(=O)O)C(=O)N[C@@H](CO)C(=O)N[C@@H](CCC(=O)O)C(=O)N[C@@H](CCC(N)=O)C(=O)N[C@@H](CC(C)C)C(=O)N[C@@H](CO)C(=O)N[C@@H](CCCNC(=N)N)C(=O)N[C@@H](CC(=O)O)C(=O)N[C@@H](CS)C(=O)N[C@@H](CC(=O)O)C(=O)O)C(C)C [peptide 2] (H-KACRRLFGPVDSEQLSRDCD-OH; C-terminus assumed)
effect on Cdc2-cyclin B histone H1 kinase activity (cyclin B-Cdc2): neither peptide 2 nor peptide 10 had a significant effect
substrate for cyclin D1-Cdk4 (cyclin D1-Cdk4 [2]): neither peptide 2 nor peptide 10 were substrates for cyclin D1-Cdk4

IC50 (cyclin D1-Cdk4 [3]): ~100 µM
fold higher I0.5 than full length peptide (cyclin D1-Cdk4 [1]; versus full length peptide 10): approximately 1000 fold
Molecule: CC[C@H](C)[C@H](NC(=O)[C@H](CC(C)C)NC(=O)[C@H](CCCNC(=N)N)NC(=O)[C@H](CCCNC(=N)N)NC(=O)[C@@H](N)CCCCN)C(=O)N[C@@H](Cc1ccccc1)C(=O)N[C@@H](CO)C(=O)N[C@@H](CCCCN)C(=O)O (H-KRRLIFSK-OH; C-terminus assumed)
cyclin D1-Cdk4 inhibitory activity (cyclin D1-Cdk4 [1]): completely inhibit cyclin D1-Cdk4 activity

cyclin D1-Cdk4 inhibitory activity (cyclin D1-Cdk4 [1]; concentrations of up to 35 μM): no inhibitory activity
Molecule: peptide 4: residues 46-65 of p21WAF1, SEQ ID NO:4, Biotin-SGSG spacer (RERWNFDFVTETPLEGDFAW; not fully specified (N-terminus, C-terminus))
cyclin D1-Cdk4 inhibitory activity (cyclin D1-Cdk4 [1]): no detectable activity; also recorded: no Cdk4 inhibitory activity

cyclin D1-Cdk4 inhibitory activity (cyclin D1-Cdk4 [1]): only weak inhibition
inhibition of cyclin D1-Cdk4 activity (cyclin D1-Cdk4 [1]; peptide at 17 μM): inhibited cyclin D1-Cdk4 activity
Molecule: 8: synthetic peptide of the p21WAF1 library, SEQ ID NO:8 (AEEDHVDLSLSCTLVPRSGE) [compound 8]

fold lower I0.5 in vitro than free peptide (cyclin D1-Cdk4 [1]; carrier linked versus free peptide, data not shown): approximately 50 fold
Molecule: Peptide-II: truncated peptide 10 coupled to carrier peptide, SEQ ID NO:25 (KRRLIFSKRQIKIWFQNRRMKWKK)
phosphorylation status of pRb [5]: totally prevented the phosphorylation of pRb
G1-, S-phase distribution / G1 arrest (HaCaT cells): effectively promoted a G1-phase arrest
fold less active as growth suppressor than Peptide-I (HaCaT cells; versus Peptide-I): 2 fold

binding result [9]: no binding
B6: peptide 4 (residues 46-65 of p21^WAF1) (peptide)
peptide: H-RERWNFDFVTETPLEGDFAWSGSG
modifications: not fully specified (C-terminus); also: biotin on C-terminal SGSG spacer, order not given here
notes: Synthetic biotinylated peptide
